Columns and labels:
[1] = biological target: CTLA-4-Fc (GenScript, Z03373-50) (UniProt P16410 36-161); assay: cell-based or functional assay
[2] = biological target: human PD-1 expressed on CHO cells (human, UniProt Q15116 25-288); assay: cell-based or functional assay
human PD-1 expressed on CHO cells, sequence (Q15116 25-288): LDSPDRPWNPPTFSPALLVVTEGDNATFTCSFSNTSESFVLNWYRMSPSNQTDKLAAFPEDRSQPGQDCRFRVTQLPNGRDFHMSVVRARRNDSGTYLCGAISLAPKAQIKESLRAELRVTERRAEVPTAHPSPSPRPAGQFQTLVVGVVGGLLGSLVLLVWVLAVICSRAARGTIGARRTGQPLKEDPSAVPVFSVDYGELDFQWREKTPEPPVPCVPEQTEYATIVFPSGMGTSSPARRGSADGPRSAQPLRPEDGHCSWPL

CTLA-4-Fc (GenScript, Z03373-50), sequence (P16410 36-161 limits assumed, one chain of several): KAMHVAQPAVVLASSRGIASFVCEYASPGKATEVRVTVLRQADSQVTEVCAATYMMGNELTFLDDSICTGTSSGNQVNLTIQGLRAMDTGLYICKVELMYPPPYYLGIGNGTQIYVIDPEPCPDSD

| EC50 (nM), IL-2 secretion, CD4+ T cells with CHO-K1/human CD80 and CTLA-4-Fc [1] [nM] | EC50 (nM), NFAT luciferase, PD-1/NFAT Reporter-Jurkat cells with CHO-K1 expressing human PD-L1 and TCR activator [2] [nM] | Binder |
| --- | --- | --- |
| 8.4 | 8.9 | BCP-78 (bispecific antibody) chain 1: EVQLVESGGGVVQPGRSLRLSCAASGRTITTITMGWFRQAPGKGREFVASHSWTDNNPYYADSVKGRFTISRDNAKNTLYLQMNSLRPEDTAVYYCAATARRSFVGRQWYTEARQYDYWGQGTLVTVSSEPKSSDKTHTSPPSPQVQLVESGGGVVQPGRSLRLDCKASGITFSNSGMHWVRQAPGKGLEWVAVIWYDGSKRYYADSVKGRFTISRDNSKNTLFLQMNSLRAEDTAVYYCATNDDYWGQGTLVTVSSASTKGPSVFPLAPCSRSTSESTAALGCLVKDYFPEPVTVSWNSGALTSGVHTFPAVLQSSGLYSLSSVVTVPSSSLGTKTYTCNVDHKPSNTKVDKRVESKYGPPCPPCPAPEFLGGPSVFLFPPKPKDTLMISRTPEVTCVVVDVSQEDPEVQFNWYVDGVEVHNAKTKPREEQFNSTYRVVSVLTVLHQDWLNGKEYKCKVSNKGLPSSIEKTISKAKGQPREPQVYTLPPSQEEMTKNQVSLTCLVKGFYPSDIAVEWESNGQPENNYKTTPPVLDSDGSFFLYSRLVDKSRWQEGNVFSCSVMHEALHNHYTQKSLSLSLGK chain 2: not shown |
| 12.1 | 1.6 | BCP-73 (bispecific antibody) chain 1: not shown chain 2: EIVLTQSPATLSLSPGERATLSCRASKGVSTSGYSYLHWYQQKPGQAPRLLIYLASYLESGVPARFSGSGSGTDFTLTISSLEPEDFAVYYCQHSRDLPLTFGGGTKVEIKRTVAAPSVFIFPPSDEQLKSGTASVVCLLNNFYPREAKVQWKVDNALQSGNSQESVTEQDSKDSTYSLSSTLTLSKADYEKHKVYACEVTHQGLSSPVTKSFNRGEC |
| 12.1 | 5.5 | BCP-75 (bispecific antibody) chain 1: not shown chain 2: EIVLTQSPATLSLSPGERATLSCRASKGVSTSGYSYLHWYQQKPGQAPRLLIYLASYLESGVPARFSGSGSGTDFTLTISSLEPEDFAVYYCQHSRDLPLTFGGGTKVEIKRTVAAPSVFIFPPSDEQLKSGTASVVCLLNNFYPREAKVQWKVDNALQSGNSQESVTEQDSKDSTYSLSSTLTLSKADYEKHKVYACEVTHQGLSSPVTKSFNRGEC |
| 14.3 | 4.3 | BCP-74 (bispecific antibody) chain 1: not shown chain 2: EIVLTQSPATLSLSPGERATLSCRASKGVSTSGYSYLHWYQQKPGQAPRLLIYLASYLESGVPARFSGSGSGTDFTLTISSLEPEDFAVYYCQHSRDLPLTFGGGTKVEIKRTVAAPSVFIFPPSDEQLKSGTASVVCLLNNFYPREAKVQWKVDNALQSGNSQESVTEQDSKDSTYSLSSTLTLSKADYEKHKVYACEVTHQGLSSPVTKSFNRGEC |

From patent US20230059836A1 (NANJING LEGEND BIOTECH, published 2023)
